Assay results: article PMC9811221 (2022)

target: PD-L1-Fc fusion protein (Invitrogen) (human, UniProt Q9NZQ7 19-238); assay: BLI
Sequence (Q9NZQ7 19-238): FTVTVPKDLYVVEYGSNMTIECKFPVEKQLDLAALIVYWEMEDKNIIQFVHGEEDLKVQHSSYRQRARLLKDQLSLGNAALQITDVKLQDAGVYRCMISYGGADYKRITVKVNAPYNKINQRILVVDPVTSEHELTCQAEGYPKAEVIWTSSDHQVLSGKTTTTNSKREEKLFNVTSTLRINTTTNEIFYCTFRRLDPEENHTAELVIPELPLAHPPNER

Row | Binder | Kd [nM]
1 | VHH17 (VHH) VHH: EVQLVESGGGLVQAGGSLRLSCAASGRTFSAYAMGWFRQAPGKERELVAGISWSGGMTYYADSVKGRFTISRDNAKNMVYLQMNSLKAEDTAVYYCAGGFSAVVPDHPDEYHYWGQGTQVTVSS | 330
2 | VHH2 (VHH) VHH: QVQLVESGGGSVQPGGSLRLSCAASGSIVGHAVQAWYRQAPGKQRDLVAQLFDNGKTNIADSVKGRFTISGDNAKNTFYLQMNNLKPEDTAIYYCAILILPSMGVPPNIYEGQGTQVTVSS | 2200
3 | VHH10 (VHH) VHH: EVQLVESGGGLVQAGDSLRLSCAASGRAFSGYAMAWFRQAPEKEREFVAAITWRGGTPYYAVRAKGRFTISRDSAKNTAYLEVNSLKPEDTATYYCAAPSLQVATMDVKDYAYWGQGTLVTVSS | 190
4 | VHH22 (VHH) VHH: EVQLVESGGGLVQAGGSLKLSCAASGRTFSGNTMGWFRQAPGKERELVTVVSSGGSTYYSDSVKGRFTISRDNALNTVYLQMNSLKPEDTAVYYCAAASLISGLTTTRRLFDYWGQGTQVTVSS | 2700
5 | VHH20 (VHH) VHH: EVQLVESGGGSVQAGGSLRLSCVASGIAFSESPMAWYRQAPGRQREFVADVSADNKPYYRDTLKGRFTISRDNDKNSVYLQMNFLQPEDTAVYYCNALLLEAGTIKNYWGQGTQVTVSS | 340

Other lines, results leading:

Row | Kd [nM] | Binder
6 | 290 | VHH14 (VHH) VHH: EVQLVESGGGLVQAGDSLRLSCTASARTFIKYAMGWFRQAPGKEREFVAAISWSGSRTTYADSVKGRFTISRDNDKNTVYLQMNTLEPEDTAIYYCAKAKGGYHSSQYDYDYWGQGTQVTVSS
7 | 1600 | VHH19 (VHH) VHH: EVQLVESGGGSVQAGASLRLSCAASGFPFSHYAIGWFRQAPGKEREFVTSIDRSGINTYYADSVKGRFTISRDNAKNAVSLQMNSLKPDDTAVYYCAAGPRLVTSPELYPYWGQGTQVTVSS
8 | 5100 | VHH21 (VHH) VHH: EVQLVESGGGLVQTGGSLRLSCAASGRTFDSYFMGWFRQAPGKEREFVAAISGSGSLTSYEDGVKGRFTISRDNAKNTVSLQMTNLKPEDTAVYYCASCLSCAFINGRQVDSRYYNYWGQGTQVTVSS
9 | 1300 | VHH13 (VHH) VHH: EVQLVESGGGLVQPGGSLRLSCAASGSTFSINAMGWYRQAPGKQRELVAAISSGGSTNYADSVKGRFTISRDNAKNTVYLQMNSLKPEDTAVYYCNTINIGTFISLGGSPLGSWGQGTQVTVSS
10 | 720 | VHH18 (VHH) VHH: EVQLVESGGGWVQTGGSLRLSCAASGSTFDIKRMAWYRQAPGKEREFVADIWSEGSTHYADSVKGRFTISRDSAKNTMYLYMNSLKPEDTAVYYCNVEYVLRTYWGQGTQVTVSS
11 | 180 | VHH16 (VHH) VHH: QVQLVESGGGWVQTGGSLRLSCAASGSTFDIKRMAWYRQAPGKEREFVADIWSEGSTHYADSVKGRFTISRDSAKNTMYLQMNSLKPEDTAAYYCNVGNTWGQGTQVTVSS
